Experimental data published in article PMC8134430.
pKd: −log10 of the molar value.

Molecular target: Recombinant pseudopilin domain of Naegleria gruberi GspG1 (NgGspG1) lacking the N-terminal hydrophobic part (Naegleria gruberi)
Experiment: MST; Monolith NT.115; 10 nM protein labelled with Red-NHS dye NT-647, unlabelled protein titrated to 50 uM; 50 mM HEPES, 50 mM NaCl

pKd: 6.67
Substance: Recombinant pseudopilin domain of Naegleria gruberi GspG1 (NgGspG1) lacking the N-terminal hydrophobic part (domain or fragment)
